This note sets out measurements from publication doi:10.1101/2025.09.11.675134, “Biodistribution-Driven Discovery Identifies a Glycosidase-Cleavable Linker to Reprogram Radiotheranostics” (bioRxiv, 2025).

Like-named read-outs stand apart in the source and are kept apart here. Positions of bridges follow the written chain, without caps; N, C: chain ends. Non-standard residues stand in square brackets, D forms with d. Residues, ends and D or L forms follow the SMILES beside them. *: point of attachment. DOTA = O=C(O)CN1CCN(CC(=O)O)CCN(CC(=O)*)CCN(CC(=O)O)CC1

The nature of this series: Ex vivo biodistribution screen of 111In-labeled DOTA-TATE derivatives in normal mice. The arrangement: species or system athymic nude mice. The note with it: 2 h post-injection; for tissue uptake at 2 h: athymic nude, mouse, iv, 1 ug per mouse, total radioactivity; for Relative kidney retention, % rel. to DOTA-TATE: normal mice, 111In-DOTA-TATE set as 100%. On the procedure:
The panel of 10 compounds were then tested in an initial biodistribution screen of 9 organs assessed in non-tumor-bearing mice at specific timepoints following administration of the radioconjugates. Each agent was initially labeled with ^111In, a long-lived gamma-emitting radioisotope suitable for biodistribution studies, with high radiochemical yields and purity (Fig. S12). The compounds were then dosed (1.55 ± 0.12 MBq; 1 μg per mouse) in healthy athymic nude mice via intravenous (i.v.) injection in phosphate-buffered saline (PBS; vehicle). After 2 hours, the mice were sacrificed and ex vivo biodistribution analysis was performed (Fig. 2). […] This was an expected finding because this variant was designed to bind serum albumin.
Radiolabeling and In Vivo Evaluation of DOTA-TATE Variants:
Biodistribution, PET Quantification, and Dosimetry
Radiolabeling: To perform the initial biodistribution screen, radiolabeling of 10 compounds, including DOTA-TATE, was carried out using 111In (Cardinal Health, Arbutus, MD, USA), an affordable and readily available gamma -emitting radioisotope with a moderate half -life (2.83 days), which affords efficient DOTA radiolabeling and facilitates handling. 111InCl3 (28 – 36 MBq) was diluted with 0.4 M NH 4OAc buffer (pH 5.2) and combined with DOTA -TATE variants (20 μg). The solution was mixed well and then incubated at 90 °C for 30 min.
Radiolabeling efficiency and radiochemical purity were determined by radio -TLC and radio - HPLC. Radiochemical yield was >95% and the material was used without further purification.
The specific activity was 1.55 ± 0.12 TBq/g (41.9 ± 3.2 Ci/g). […]
Radio-instant thin-layer chromatography (radio-iTLC) was performed using silicic acid-impregnated glass microfiber paper strips (iTLC-SA, Varian, Lake Forest, CA, USA) as the stationary phase, and 50 mM EDTA in 100 mM NH4OAc (pH 5.5) as the mobile phase, analyzed with a radio-TLC scanner (AR-2000, Eckert-Ziegler, Wilmington, MA, USA). For Ac-225, equilibration was allowed for at least 12 hours before scanning the TLC strips to confirm initial scans. Radio-HPLC analysis (Agilent 1260 Infinity II, Agilent Technologies Inc., Santa Clara, CA, USA) was conducted on a TSK- Octadecyl-4PW column (5 µm, 4.6 mm ID × 15 cm, Tosoh
Co. Tokyo, Japan) with gradient elution using 0.1% trifluoroacetic acid in water as mobile phase A and 0.1% trifluoroacetic acid in acetonitrile as Mobile phase B. The elution sequence was 0-5 […]
PET imaging and biodistribution: For initial biodistribution screen studies, normal mice were administered 1.4 – 1.8 MBq (1 μg) of 111In-DOTA-TATE variants via tail vein injection and biodistribution studies were conducted at 2 hours post -injection (n = 2 – 4 per cohort).
For studies involving three variants (DOTA -TATE, DOTA-MVK(ε)-TATE, and DOTA-β-Gal-TATE), AR42J cells (5 × 10^6 cells per mouse) were subcutaneously inoculated into the right shoulder of the mice. Tumors were allowed to grow for 3 weeks, reaching a volume of 100 –200 mm³ before being used in subsequent experiments. For biodistribution or PET imaging studies, mice bearing subcutaneous AR42J tumors were administered 1.4 – 1.8 MBq (1 μg) of 111In-labeled DOTA-TATE variants or 2.7 – 4.9 MBq (1 μg) of 86Y-labeled DOTA-TATE variants via tail vein injection. Biodistribution studies with 111In-labeled DOTA -TATE variants were performed 1 hour post -injection (n = 3 per cohort), while studies with 86Y-labeled DOTA-TATE variants were conducted at 1, 4, and 24 hours post -injection (n = 3 per cohort). Mice were euthanized by CO2 asphyxiation, and 10 tissues, including tumors, were collected. All samples were weighed and counted on a gamma counter (2480 Wizard 3, Perkin Elmer Inc., Waltham, MA, USA). Results are presented as percentage of injected activity per gram (%IA/g) and mean values ± standard deviations.
PET imaging to assess the uptake of three 86Y-labeled DOTA-TATE variants (2.7 – 4.9 MBq, 1 […]

[1] abbreviates: blood, normal athymic nude mice, i.v. 1 μg (1.4–1.8 MBq), ex vivo gamma counting, mean, n = 2–4, read-out: Blood uptake.
[2] abbreviates: femur, normal athymic nude mice, i.v. 1 μg, ex vivo, mean, n = 2–4, read-out: Femur uptake.
[3] abbreviates: heart, normal athymic nude mice, i.v. 1 μg, ex vivo, mean, n = 2–4, read-out: Heart uptake.
[4] abbreviates: intestine, normal athymic nude mice, i.v. 1 μg, ex vivo, mean, n = 2–4, read-out: Intestine uptake.
[5] abbreviates: kidney, normal athymic nude mice, i.v. 1 μg, ex vivo, mean (± SD), n = 2–4, read-out: Kidney uptake.
Setting [6] is: liver, normal athymic nude mice, i.v. 1 μg, ex vivo, mean, n = 2–4, read-out: Liver uptake.
The mark [7] stands for this setting: lung, normal athymic nude mice, i.v. 1 μg, ex vivo, mean, n = 2–4, read-out: Lung uptake.
Setting [8] is: muscle, normal athymic nude mice, i.v. 1 μg, ex vivo, mean, n = 2–4, read-out: Muscle uptake.
The mark [9] stands for this setting: spleen, normal athymic nude mice, i.v. 1 μg, ex vivo, mean, n = 2–4, read-out: Spleen uptake.
[10] abbreviates: in vivo, normal athymic nude mice, i.v. 1 μg, ex vivo, mean (± SD), n = 2–4, read-out: Kidney uptake.

For `C[C@@H](O)[C@H](NC(=O)[C@@H]1CSSC[C@H](NC(=O)[C@@H](Cc2ccccc2)NC(=O)CCCC(=O)Nc2cc(COC(=O)N(C)CCNC(=O)CN3CCN(CC(=O)O)CCN(CC(=O)O)CCN(CC(=O)O)CC3)ccc2O[C@@H]2O[C@H](C(=O)O)[C@@H](O)[C@H](O)[C@H]2O)C(=O)N[C@@H](Cc2ccc(O)cc2)C(=O)N[C@H](Cc2c[nH]c3ccccc23)C(=O)N[C@@H](CCCCN)C(=O)N[C@@H]([C@@H](C)O)C(=O)N1)C(=O)O` [^111In-DOTA-GlcA-TATE, metal not drawn], the “Relative kidney retention, % rel. to DOTA-TATE” value is recorded as 147%. For the same compound, the tissue uptake at 2 h under setting [1] was determined as 0.08 %ID/g. The tissue uptake at 2 h under setting [2] was 0.1 %ID/g. The tissue uptake at 2 h under setting [3] is 0.08 %ID/g. In addition, the tissue uptake at 2 h under setting [4] is 0.44 %ID/g. Besides, the tissue uptake at 2 h under setting [5] amounted to 8.88 %ID/g. Further, the tissue uptake at 2 h under setting [6] was found to be 0.13 %ID/g. In addition, the tissue uptake at 2 h under setting [7] was determined as 0.19 %ID/g. Further, the tissue uptake at 2 h under setting [8] was found to be 0.03 %ID/g. In addition, the tissue uptake at 2 h under setting [9] came out at 0.08 %ID/g.

For the compound `C[C@@H](O)[C@H](NC(=O)[C@@H]1CSSC[C@H](NC(=O)[C@@H](Cc2ccccc2)NC(=O)CCCC(=O)Nc2cc(COC(=O)N(C)CCNC(=O)CN3CCN(CC(=O)O)CCN(CC(=O)O)CCN(CC(=O)O)CC3)ccc2O[C@@H]2O[C@H](CO)[C@H](O)[C@H](O)[C@H]2O)C(=O)N[C@@H](Cc2ccc(O)cc2)C(=O)N[C@H](Cc2c[nH]c3ccccc23)C(=O)N[C@@H](CCCCN)C(=O)N[C@@H]([C@@H](C)O)C(=O)N1)C(=O)O` [DOTA-β-Gal-TATE], the tissue uptake at 2 h under setting [10] is 4.1 %ID/g.

As for `CSCC[C@H](NC(=O)CN1CCN(CC(=O)O)CCN(CC(=O)O)CCN(CC(=O)O)CC1)C(=O)N[C@H](C(=O)N[C@@H](CCCCN)C(=O)N[C@H](Cc1ccccc1)C(=O)N[C@H]1CSSC[C@@H](C(=O)N[C@H](C(=O)O)[C@@H](C)O)NC(=O)[C@H]([C@@H](C)O)NC(=O)[C@H](CCCCN)NC(=O)[C@@H](Cc2c[nH]c3ccccc23)NC(=O)[C@H](Cc2ccc(O)cc2)NC1=O)C(C)C` [^111In-DOTA-MVK-TATE, metal not drawn] ({DOTA}-MVK[dF]CY[dW]KTCT-OH; disulfide 5-10), the “Relative kidney retention, % rel. to DOTA-TATE” value was determined as 1251%. Further, the tissue uptake at 2 h under setting [1] came to 0.09 %ID/g. Moreover, the tissue uptake at 2 h under setting [2] turned out to be 0.25 %ID/g. Also, the tissue uptake at 2 h under setting [3] is 0.07 %ID/g. Moreover, the tissue uptake at 2 h under setting [4] is 0.78 %ID/g. In addition, the tissue uptake at 2 h under setting [6] worked out at 0.25 %ID/g. For the same compound, the tissue uptake at 2 h under setting [7] was 0.51 %ID/g. The tissue uptake at 2 h under setting [8] turned out to be 0.02 %ID/g. The tissue uptake at 2 h under setting [9] stood at 0.18 %ID/g. The Kidney uptake (normal athymic nude mice, i.v. 1 μg, ex vivo, mean (± SD), n = 2–4) turned out to be 75.65 %IA/g.

`C[C@@H](O)[C@H](NC(=O)[C@@H]1CSSC[C@H](NC(=O)[C@@H](Cc2ccccc2)NC(=O)CNC(=O)[C@H](CC(=O)O)NC(=O)[C@H](CC(=O)O)NC(=O)[C@H](CC(=O)O)NC(=O)CNC(=O)CN2CCN(CC(=O)O)CCN(CC(=O)O)CCN(CC(=O)O)CC2)C(=O)N[C@@H](Cc2ccc(O)cc2)C(=O)N[C@H](Cc2c[nH]c3ccccc23)C(=O)N[C@@H](CCCCN)C(=O)N[C@@H]([C@@H](C)O)C(=O)N1)C(=O)O` [DOTA-GDDDG-TATE] ({DOTA}-GDDDG[dF]CY[dW]KTCT-OH; disulfide 7-12): the tissue uptake at 2 h under setting [5] was determined as 13 %ID/g.

`C[C@@H](O)[C@H](NC(=O)[C@@H]1CSSC[C@H](NC(=O)[C@@H](Cc2ccccc2)NC(=O)CCCC(=O)Nc2cc(COC(=O)N(C)CCNC(=O)CN3CCN(CC(=O)O)CCN(CC(=O)O)CCN(CC(=O)O)CC3)ccc2O[C@@H]2O[C@H](CO)[C@@H](O)[C@H](O)[C@H]2O)C(=O)N[C@@H](Cc2ccc(O)cc2)C(=O)N[C@H](Cc2c[nH]c3ccccc23)C(=O)N[C@@H](CCCCN)C(=O)N[C@@H]([C@@H](C)O)C(=O)N1)C(=O)O` [^111In-DOTA-β-Glu-TATE, metal not drawn]: the “Relative kidney retention, % rel. to DOTA-TATE” value is 105%. Besides, for the setting “in vivo, normal athymic nude mice, i.v. 1 μg (1.4–1.8 MBq), ex vivo gamma counting, mean, n = 2–4, read-out: Blood uptake”, the tissue uptake at 2 h is 0.09 %ID/g. Under setting [10], the tissue uptake at 2 h amounted to 6.34 %ID/g. Besides, for the setting “in vivo, normal athymic nude mice, i.v. 1 μg, ex vivo, mean, n = 2–4, read-out: Femur uptake”, the tissue uptake at 2 h turned out to be 0.21 %ID/g. Besides, the tissue uptake at 2 h (in vivo, normal athymic nude mice, i.v. 1 μg, ex vivo, mean, n = 2–4, read-out: Heart uptake) worked out at 0.07 %ID/g. For the same compound, under “in vivo, normal athymic nude mice, i.v. 1 μg, ex vivo, mean, n = 2–4, read-out: Intestine uptake”, the tissue uptake at 2 h turned out to be 1.07 %ID/g. The tissue uptake at 2 h (in vivo, normal athymic nude mice, i.v. 1 μg, ex vivo, mean, n = 2–4, read-out: Liver uptake) stood at 0.19 %ID/g. Further, under “in vivo, normal athymic nude mice, i.v. 1 μg, ex vivo, mean, n = 2–4, read-out: Lung uptake”, the tissue uptake at 2 h stood at 0.51 %ID/g. In addition, the tissue uptake at 2 h (in vivo, normal athymic nude mice, i.v. 1 μg, ex vivo, mean, n = 2–4, read-out: Muscle uptake) is 0.03 %ID/g. In addition, where the note is “in vivo, normal athymic nude mice, i.v. 1 μg, ex vivo, mean, n = 2–4, read-out: Spleen uptake”, the tissue uptake at 2 h is 0.16 %ID/g.
